Assay results taken from US20210371526A1 (AMPSOURCE BIOPHARMA SHANGHAI, published 2021).

What was measured:
[1] = molecular target: T1, Mucin1 on tumor cells (MCF-7, BT-549, HCC70, T-47D, HCC1954, SK-OV-3, Hela, HT-29) (human, UniProt P15941 24-1255); assay: flow cytometry on Hela cells
T1 construct: whole, on cells; also called tumor cells over-expressing Mucin1

[2] = molecular target: T1, Mucin1 on tumor cells (MCF-7, BT-549, …); assay: flow cytometry on SK-OV-3 cells
[3] = molecular target: T1, Mucin1 on tumor cells (MCF-7, BT-549, …); assay: cell-based or functional assay
[4] = molecular target: T1, Mucin1 on tumor cells (MCF-7, BT-549, …); assay: flow cytometry on BT-549 cells
[5] = molecular target: T1, Mucin1 on tumor cells (MCF-7, BT-549, …); assay: flow cytometry on HCC70 cells
[6] = molecular target: T1, Mucin1 on tumor cells (MCF-7, BT-549, …); assay: flow cytometry on T-47D cells
[7] = molecular target: T1, Mucin1 on tumor cells (MCF-7, BT-549, …); assay: cell-based or functional assay; remark: listed apart in the source
[8] = molecular target: T1, Mucin1 on tumor cells (MCF-7, BT-549, …); assay: flow cytometry on HCC1954 cells

B1: Bispecific antibody AB11K (Anti-Mucin1×CD3, scFv1-scFv2-Fc) (bispecific antibody)
chain: EVQLVESGGGLVQPGGSMRLSCVASGFPFSNYWMNWVRQAPGKGLEWVGEIRLKSNNYTTHYAESVKGRFTISRDDSKNSLYLQMNSLKTEDTAVYYCTRHYYFDYWGQGTLVTVSSGGGGSGGGGSGGGGSDIVMTQSPLSNPVTPGEPASISCRSSKSLLHSNGITYFFWYLQKPGQSPQLLIYQMSNLASGVPDRFSGSGSGTDFTLRISRVEAEDVGVYYCAQNLELPPTFGQGTKVEIKGGGGGGSGGGGSGGGGSSSSSKAPPPSEVQLLESGGGLVQPGGSLKLSCAASGFTFNTYAMNWVRQAPGKGLEWVARIRSKYNNYATYYADSVKDRFTISRDDSKNTAYLQMNNLKTEDTAVYYCVRHGNFGNSYVSWFAYWGQGTLVTVSSGGGGSGGGGSGGGGSELVVTQEPSLTVSPGGTVTLTCRSSTGAVTTSNYANWVQQKPGQAPRGLIGGTNKRAPGTPARFSGSLLGGKAALTLSGVQPEDEAEYYCALWYSNLWVFGGGTKLTVLDKTHTCPPCPAPEAAGGPSVFLFPPKPKDQLMISRTPEVTCVVVDVSHEDPEVKFNWYVDGVEVHNAKTKPREEQYASTYRVVSVLTVLHQDWLNGKEYKCKVSNKALPASIEKTISKAKGQPREPQVYTLPPSRDELTKNQVSLTCLVKGFYPSDIAVEWESNGQPENNYKTTPPVLDSDGSFFLYSKLTVDKSRWQQGNVFSCSVLHEALHNHYTQKSLSLSPG
EC50 [1]: 5.51 nM | EC50 [2]: 93.7 nM | PBMC killing EC50, BT-549 cells [3]: 0.956 nM | PBMC killing EC50, HCC70 cells [3]: 0.595 nM | PBMC killing EC50, HCC1954 cells [3]: 1.89 nM | PBMC killing EC50, HT-29 cells [3]: 9.55 nM | PBMC killing EC50, Hela cells [3]: 4.81 nM | PBMC killing EC50, MCF-7 cells [3]: 0.131 nM | T cell killing EC50, BT-549 cells [3]: 0.141 nM | T cell killing EC50, HCC70 cells [3]: 0.185 nM | T cell killing EC50, HCC1954 cells [3]: 0.281 nM | T cell killing EC50, HT-29 cells [3]: 1.58 nM | T cell killing EC50, Hela cells [3]: 0.278 nM | T cell killing EC50, MCF-7 cells [3]: 0.153 nM | T cell killing EC50, SK-OV-3 cells [3]: 0.689 nM | T cell killing EC50, T-47D cells [3]: 0.0845 nM | EC50 [4]: 287 nM | EC50 [5]: 59 nM | EC50 [6]: 5.05 nM | T cell activation EC50 (Jurkat-NFAT luciferase) with BT-549 cells [7]: 10.5 nM | T cell activation EC50 (Jurkat-NFAT luciferase) with HCC70 cells [7]: 3.02 nM | T cell activation EC50 (Jurkat-NFAT luciferase) with HCC1954 cells [7]: 5.6 nM | T cell activation EC50 (Jurkat-NFAT luciferase) with HT-29 cells [7]: 6.71 nM | T cell activation EC50 (Jurkat-NFAT luciferase) with Hela cells [7]: 7.24 nM | T cell activation EC50 (Jurkat-NFAT luciferase) with MCF-7 cells [7]: 14.2 nM | T cell activation EC50 (Jurkat-NFAT luciferase) with SK-OV-3 cells [7]: 10.4 nM | T cell activation EC50 (Jurkat-NFAT luciferase) with T-47D cells [7]: 0.629 nM | EC50 [8]: 81.2 nM
